Results taken from patent US20230285589A1, “LIPOSOME COMPLEX FOR CANCER TREATMENT, COMPRISING NOVEL CD47 BINDER AND POLYNUCLEOTIDE” (priority 2020, published 2023).

Legend:
recombinant CD47 protein = recombinant CD47 protein (Homo sapiens, UniProt Q08722); test: SPR, CD47 conjugated to CM5 chip; conditions: 250 RU CD47, 1:1 binding model
Procedure: Specifically, the recombinant CD47 protein was conjugated to the surface of the CM5 chip by a target SPR reaction of 250 RU through an EDC-NHS reaction to be used, and for HBS-P, the sensogram obtained through a process of association for 3 minutes and dissociation for 10 minutes at a flow rate of 30 μL/minutes was analyzed with the BiaEvaluation software using a 1:1 binding model and global fitting.

[1] = 5'-nucleotidase preferred substrate (Km), dTMP; type: biochemical; conditions: according to Table 4

recombinant CD47 protein, sequence (Q08722 19-323): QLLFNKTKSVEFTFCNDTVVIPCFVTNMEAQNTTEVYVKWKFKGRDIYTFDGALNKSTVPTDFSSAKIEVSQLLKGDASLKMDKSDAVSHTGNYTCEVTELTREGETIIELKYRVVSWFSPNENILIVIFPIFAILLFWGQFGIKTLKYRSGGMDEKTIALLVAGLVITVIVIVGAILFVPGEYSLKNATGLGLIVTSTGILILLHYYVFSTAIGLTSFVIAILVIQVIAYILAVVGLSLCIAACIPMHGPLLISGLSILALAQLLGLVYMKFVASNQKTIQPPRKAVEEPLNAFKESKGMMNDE

Row | Molecule | ka (recombinant CD47 protein) [M⁻¹ s⁻¹] | kd (recombinant CD47 protein) [s⁻¹] | affinity for dTMP, times lower compared to T001 [1] [times]
1 | SV4: CD47 binder of SEQ ID NO: 2; SV1 with lysines at positions 11 and 104 substituted with leucine (protein, CD47 binder SV4) MEEELQIIQPDLSVSVAAGESAILHCTITSLFPVGPIQWFRGAGPARVLIYNQRQGPFPRVTTVSETTKRENMDFSISISNITPADAGTYYCIKFRKGSPDTEFLSGAGTELSVRAKPS | 164000 | 0.000275 | 
2 | NT5M: Human mitochondrial 5′-deoxyribonucleotidase (SEQ ID NO: 32) (protein, NT5M) MGGRALRVLVDMDGVLADFEGGFLRKFRARFPDQPFIALEDRRGFWVSEQYGRLRPGLSEKAISIWESKNFFFELEPLPGAVEAVKEMASLQNTDVFICTSPIKMFKYCPYEKYAWVEKYFGPDFLEQIVLTRDKTVVSADLLIDDRPDITGAEPTPSWEHVLFTACHNQHLQLQPPRRRLHSWADDWKAILDSKRPC |  |  | 30
